Measured values as given in paper PMC3880865.
Where two headings read alike, the source gives them in different places.

Assays:
CBL47–435 pY371 (human) = CBL47–435 pY371 (human) (UniProt P22681)
GST-CBL47–435 WT (human) [1] = target: GST-CBL47–435 WT (human) (UniProt P22681); assay: SPR
[2] = target: GST-CBL47–435 Y368F pY371 (human) (UniProt P22681); assay: SPR
GST-CBL47–435 WT (human) [3] = target: GST-CBL47–435 WT (human) (UniProt P22681); assay: SPR; remark: listed apart in the source
[4] = target: GST-CBL47–435 Y371F (human) (UniProt P22681); assay: SPR
Sequence of GST-CBL47–435 Y371F (human) (P22681 47-435 Y371F): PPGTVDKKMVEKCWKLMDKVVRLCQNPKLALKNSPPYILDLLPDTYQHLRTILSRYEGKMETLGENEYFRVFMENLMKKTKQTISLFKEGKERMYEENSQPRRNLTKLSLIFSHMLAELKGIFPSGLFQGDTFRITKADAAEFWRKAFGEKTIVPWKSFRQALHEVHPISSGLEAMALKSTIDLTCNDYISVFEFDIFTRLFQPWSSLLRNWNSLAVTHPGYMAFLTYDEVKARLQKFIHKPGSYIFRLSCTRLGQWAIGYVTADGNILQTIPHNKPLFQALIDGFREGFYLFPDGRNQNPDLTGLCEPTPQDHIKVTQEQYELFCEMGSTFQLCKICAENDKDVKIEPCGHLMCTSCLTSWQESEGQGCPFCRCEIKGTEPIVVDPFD

[5] = target: GST-CBL47–435 M222E (human) (UniProt P22681); assay: SPR
Sequence of GST-CBL47–435 M222E (human) (P22681 47-435 M222E): as the sequence (P22681 47-435 Y371F) above, with M176E, F325Y counted along it

[6] = target: GST-CBL47–435 Y368F (human) (UniProt P22681); assay: SPR
Sequence of GST-CBL47–435 Y368F (human) (P22681 47-435 Y368F): as the sequence (P22681 47-435 Y371F) above, with Y322F, F325Y counted along it

Sequence of UbcH5B (from UniProt P62837 1-147) (enzyme; other documents disagree on this pair) (P62837 whole entry): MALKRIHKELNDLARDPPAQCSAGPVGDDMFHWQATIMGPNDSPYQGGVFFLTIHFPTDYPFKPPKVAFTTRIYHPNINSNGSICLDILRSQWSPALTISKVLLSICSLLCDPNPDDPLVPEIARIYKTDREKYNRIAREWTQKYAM
Sequence of GST-CBL47–435 WT (human) (P22681 47-435): as the sequence (P22681 47-435 Y371F) above, with F325Y counted along it
Sequence of GST-CBL47–435 Y368F pY371 (human) (P22681 47-435 Y368F): as the sequence (P22681 47-435 Y371F) above, with Y322F, F325Y counted along it
Sequence of UbcH5B (from UniProt P62837 1-147) (enzyme) (P62837 whole entry): as the sequence (P62837 whole entry) above
Sequence of CBL47–435 pY371 (human) (P22681 47-435): as the sequence (P22681 47-435 Y371F) above, with F325Y counted along it

Row | Substance | Km (UbcH5B~Ub) of CBL47–435 pY371 autoubiquitination, Michaelis-Menten, 22°C (CBL47–435 pY371 (human)) [μM] | Kd (GST-CBL47–435 WT (human) [1]) [µM] | Kd [2] [µM] | Kd (GST-CBL47–435 WT (human) [3]) [µM] | Kd [4] [µM] | Kd [5] [µM] | Kd [6] [µM]
1 | UbcH5B (from UniProt P62837 1-147) (enzyme) | 6.5 | – | – | – | – | – | –
2 | ZAP-70 peptide | – | 17 | 11 | – | – | – | –
3 | UbcH5B (from UniProt P62837 1-147) (enzyme; other documents disagree on this pair) | – | 311 | 28 | 244 | 250 | 70 | 138
